These results are taken from paper PMC9610346.

Assay [1] concerns the target gp145 SOSIP construct of the Env spike protein from the HIV-1 BG505 clade A strain, nanodisc-embedded trimer (HIV-1 strain BG505 (clade A)). In words: negative-stain EM.
Assay [2] shares this target. Kind of assay: cryo-EM structure.

For “gp145 SOSIP construct of the Env spike protein from the HIV-1 BG505 clade A strain, nanodisc-embedded trimer (complex)”, the stoichiometry N in assay [1] and in assay [2] was 3 in each case.

In general, stoichiometry N refers to a count of units in the complex or per binding partner.
